Measured values from patent publication US6562587 (ASTRA PHARMA, dated 2003).
Non-standard residues stand in square brackets, D forms with d. No end group written: not given here.

Tests used:
[1] = molecular target: delta opioid receptor naturally expressed by NG 108-15 cells (UniProt P32300); test: Table 1, NG 108-15 column (method not described)
[2] = molecular target: T1, K56 receptor (mouse delta opioid receptor encoded by clone K56) (mouse, UniProt P32300 1-372); test: radioligand binding, 1 nM ^3H-DTLET on monolayer Cos-1 cells transfected with K56
T1 construct: Expressed transiently in Cos-1 cells from plasmid pCDM8-K56; 371 amino acids; also called K56 protein; Cos K56

Molecule | PKi [1] | signal over background [2]
cyclic [D-penicillamine^2, D-penicillamine^5]-enkephalin (peptide) | 8.3 | –
Y[dT]GFLT (not fully specified, Synthetic delta-selective enkephalin analogue used as the radioligand; also called ^3H-DTLET) [Tyr-D-Thr-Gly-Phe-Leu-Thr (DTLET), labelled with tritium] | – | 6 fold
